Measured values: PMC9233695, “Structural mechanism of protein recognition by the FW domain of autophagy receptor Nbr1” (Nature Communications, 2022)

Legend:
[1] = target: GST-CtNbr1(635–775) (Chaetomium thermophilum); experiment: SPR; Biacore T200, 25 °C; GST-FW domain captured by anti-GST antibody on a CM5 chip to about 700 RU; synthetic peptide flowed, 100 to 3.13 μM; 10 mM HEPES pH 7.4, 150 mM NaCl, 0.05% Tween 20; steady-state model
[2] = target: GST-hNBR1(358-498) (human) (UniProt Q14596); experiment: as above
GST-hNBR1(358-498) (human), sequence (Q14596 358-498): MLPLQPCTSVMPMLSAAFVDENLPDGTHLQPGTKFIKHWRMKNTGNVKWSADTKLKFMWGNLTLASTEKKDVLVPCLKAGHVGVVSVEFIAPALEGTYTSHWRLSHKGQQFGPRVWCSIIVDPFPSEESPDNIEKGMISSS

[3] = target: GST-CtNbr1(635–775) (Chaetomium thermophilum); experiment: SPR; Biacore T200, 25 °C; GST-FW domain captured by anti-GST antibody on a CM5 chip to about 200 RU; CtAms1 protein flowed, 50 to 1.56 nM; 10 mM HEPES pH 7.4, 150 mM NaCl, 0.05% Tween 20; 1:1 binding model
[4] = target: the molecule itself; experiment: cryo-EM structure; CtAms1-CtNbr1 FW-MBP fusion protein, 2.2 Å, D2 symmetry
CtNbr1-FW = experiment: SPR analysis of CtNbr1-FW with CtAms1 protein; set-up: species or system Chaetomium thermophilum; details: Biacore T200, 25 °C, GST-CtNbr1(635–775) captured by anti-GST on CM5 chip, about 200 RU, 10 mM HEPES, pH 7.4, 150 mM NaCl, 0.05% Tween 20, CtAms1 protein 50 to 1.56 nM twofold dilutions, 1:1 binding model, performed once, read-out: dissociation constant (KD)
Text: (§1) Fig. 4 Mutational analysis of interactions between CtAms1 and CtNbr1-FW. a–c Pil1 co-tethering assay. CtNbr1 FW domain and its mutants were fused to Pil1-mCherry and co-expressed with CtAms1-mECitrine or its mutants in S. pombe. Cells were imaged by fluorescence microscopy. Bar, 3 μm. The data shown are representative of two independent experiments with similar results. Source data are provided as a Source Data file. d SPR analysis of the CtNbr1-CtAms1 interaction. GST-tagged CtNbr1 FW domain or its mutants was bound to a CM5 sensor chip. CtAms1 or CtAms1-G2A (twofold serial dilutions from 50 nM to 1.56 nM) flowed through the chip surface. The experiments were performed once. e SPR analysis of the interactions of CtNbr1 and hNBR1 with CtAms1 N-terminal peptides. GST-tagged CtNbr1 FW domain or hNBR1 FW domain was bound to a CM5 sensor chip. Chemically synthesized CtAms1 N-terminal peptides (twofold serial dilutions from 100 μM to 3.13 μM) flowed through the chip surface. […]
(§2) Wild-type and mutant forms of GST-CtNbr1(635–775) and wild-type GST-hNBR1(358-498) were purified from E. coli, and FLAG2-His6 (FFH)-tagged CtAms1 and CtAms1-G2A were purified from S. pombe. […] The dissociation constants (KD) were calculated by fitting the sensorgrams to a 1:1 binding model (for protein–protein interaction) or a steady-state model (for protein-peptide interaction) using Biacore T200 evaluation software.

CtNbr1-FW-D654A = experiment: SPR analysis of CtNbr1-FW-D654A with CtAms1 protein; assay type: binding, Chaetomium thermophilum; details: Biacore T200, 25 °C, GST-CtNbr1 FW D654A mutant captured on CM5 chip, about 200 RU, 10 mM HEPES, pH 7.4, 150 mM NaCl, 0.05% Tween 20, CtAms1 50 to 1.56 nM, performed once
Text: as §1, §2

CtNbr1-FW-W763A = experiment: SPR analysis of CtNbr1-FW-W763A with CtAms1 protein; assay type: binding, Chaetomium thermophilum; details: Biacore T200, 25 °C, GST-CtNbr1 FW W763A mutant captured on CM5 chip, about 200 RU, 10 mM HEPES, pH 7.4, 150 mM NaCl, 0.05% Tween 20, CtAms1 50 to 1.56 nM, performed once
Text: as §1, §2

CtNbr1 = experiment: Pil1 co-tethering assay, candidate cargo proteins with CtNbr1; assay type: cell-based, Chaetomium thermophilum; details: Pil1-mCherry-CtNbr1 bait, mECitrine prey, co-expressed in S. pombe, EMM medium, 30 °C; fluorescence microscopy; two independent experiments
Text: To investigate whether this receptor-cargo relationship is conserved in C. thermophilum, we examined whether CtNbr1 interacts with the Ct homologs of NVT cargo proteins using an imaging-based Pil1 co-tethering assay. In this assay, CtNbr1 was fused to the C-terminus of the Pil1-mCherry fusion protein, which localizes to distinctive filamentary structures. A cargo protein of interest was fused to the N-terminus of fluorescent protein mECitrine. The two proteins were co-expressed in S. pombe and if they interact with each other, co-localization on filamentary structures would be observed. […] To map which domain is responsible for binding CtAms1, a series of CtNbr1 fragments were analyzed (Fig. 1b).
Plasmids expressing proteins with mECitrine/mCherry/GFP tags under the control of Pnmt1 or P41nmt1 promoter were constructed using modified pDUAL vectors. […]
(§3) Fission yeast cells were grown to mid-log phase in EMM medium at 30 °C. […] Images were obtained with a 100 × 1.4NA objective and analyzed with the SoftWoRx software.
(§4) To examine a pair-wise protein-protein interaction, a bait protein was fused to Pil1-mCherry, and a prey protein was fused to mECitrine. Cells co-expressing both proteins were grown to mid-log phase in EMM medium at 30 °C for fluorescence microscopy. […]

CtNbr1-FW-D654E = experiment: Pil1 co-tethering assay, CtAms1 and mutants with CtNbr1 FW domain D654E; assay type: cell-based, Chaetomium thermophilum; details: CtNbr1-FW-D654E fused to Pil1-mCherry, CtAms1-mECitrine or mutants, in S. pombe, 30 °C; two independent experiments
Text: as §1, §3, §4

S. pombe cells = experiment: Localization / vacuolar entry of CtAms1-mCherry in S. pombe; assay type: cell-based, Schizosaccharomyces pombe
Text: Fig. 5 CtNbr1 mediates vacuolar targeting of CtAms1 via conventional autophagy machinery in S. pombe. a CtNbr1 interacts with SpAtg8 in Pil1 co-tethering assay. SpAtg8(1−115), which lacks the G116 residue required for lipidation, was fused to Pil1-mCherry and co-expressed with mECitrine-tagged CtNbr1 in S. pombe. Pil1-mCherry served as a negative control. Cells were observed by fluorescence microscopy. Bar, 3 μm. b CtNbr1 can enter the vacuole through autophagy in nitrogen-starved S. pombe cells. CtNbr1-mCherry was expressed in wild-type and atg5Δ cells. SpCpy1-Venus was used as a vacuole lumen marker. Cells were collected before (0 h) and 8 h after nitrogen starvation (-N) and examined by fluorescence microscopy. […] C-terminally mCherry-tagged CtAms1, CtAms1-G2A, and CtAms1-G3A were individually co-expressed with untagged CtNbr1 in wild-type S. pombe cells. CtAms1-mCherry alone expressed in wild-type cells served as a negative control. CtAms1-mCherry was also co-expressed with untagged CtNbr1 in atg5Δ cells. Cells were collected before (0 h) and 3 h after nitrogen starvation and were examined by fluorescence microscopy. Bar, 3 μm. The data shown are representative of two independent experiments with similar results. Source data are provided as a Source Data file.
Plasmids expressing mECitrine- or mCherry-tagged CtNbr1 under the control of the P41nmt1 promoter and plasmids expressing mCherry-tagged CtAms1 under the control of the P41nmt1 promoter were constructed using modified stable integration vectors. Plasmids were linearized by NotI digestion and integrated at the ura4 or ade6 locus of the S. pombe genome.
Fission yeast cells were grown to mid-log phase in EMM medium at 30 °C. Microscopy was performed using the DeltaVision PersonalDV system (Applied Precision) equipped with a mCherry/YFP filter set (Chroma 89006 set) and a Photometrics Evolve 512 EMCCD camera. Images were obtained with a 100 × 1.4NA objective and analyzed with the SoftWoRx software.

GST-CtNbr1(635–775) (Chaetomium thermophilum), sequence (main, as listed by the source): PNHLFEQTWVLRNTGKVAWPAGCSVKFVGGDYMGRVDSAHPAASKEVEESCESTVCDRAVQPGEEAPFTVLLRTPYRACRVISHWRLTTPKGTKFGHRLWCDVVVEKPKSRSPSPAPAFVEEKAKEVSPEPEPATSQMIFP

CtAms1(2–15) peptide
Kd [1]: 23 µM
Kd [2]: 110 µM

FLAG2-His6 (FFH)-tagged CtAms1 (natural protein)
Kd [3]: 0.0034 µM

B1: CtAms1 in the CtAms1-CtNbr1 FW-MBP fusion protein (natural protein, Chaetomium thermophilum, UniProt G0SGP6 1-1079, looked up)
chain: MGGETFDVKGPRPNDYPLRAPKPVGQLISHIYKDRIAQFYNGGQYEHQNLRAMMKEDSVSGEPHVQLWVWHAPGQTRPSFEEAVSNQFVKTNVGEWFGPSWTTHWFRVVLTVPEHLQNKRLLEFHWDSNSEGLVWSEDGKPLQGLTGGGERVEWILPDSFRDGKEHTIYIEMACNRMFGNAPGGDSIQPPDPNKYFRLDKAEIVAIDPDARQLWIDIWILQDAAREFPGDSWESHKALQVCNEIIEAFELGNRESLKKCRKIAEQYLGPNVDSPNVYNSGKEPLVYAIGHCHIDSCWLWPFAETKRKVVRSWSSQCDLMDRYPELNFVCSQAQQYKWLKQLYPYAFERVKKKVAEGRFHPIGGSWVEHDTNMPSGESLVRQFLYGQRFYESNFGKRCKTFWLPDTFGYSAQLPQLCRLAGMTRFLTQKLSWNNINRFPHTTFNWVALDGSQVICHMPPSETYTAEAHFGDVKRSMSQHKSLDQDNTSLLVFGKGDGGGGPTWVQIEKLRRCRGISDTVGLLPRVHMGSSVDDFFDRLERKADTFVTWYGELYFELHRGTYTTQAKNKKNNRRAEAKLRDLELLATIASVQDKSYKYPKEEFDAMWENVLLCQFHDCLPGSSIEMAYRESDQMYADVFSTAEKIMKGVSQVLGLEPALNHMSTTNTVALNTLPWPRRELVKISEKEAAVAHGTGPFLKLQKLETTKPLVTLRQVTKGAFVLENSQLRVHVEKGVITSLYDKQANREVIPKGQKANQYVIFDDKPLYWQAWDVEVYHLDTRKELPSGETEVHENTPHRVSVVTRTKVSDKSHIQTIIALNGAVEGEQSWVEVQSKVDWHETMKFLKVEFPVDVRNTEASYETAFGIVRRPTHYNTSWDMAKFEVCAHRWADLSEYGYGVSILNDSKYGFATAGQTMRLSLLRSPKAPDAHADMGTHHIRWAILPHQGSLSHVTIRKAFEFNNPTKLYSSPDAAALVAAPPPVWLTPDSSPAIVLDTVKRGEDDEDVSRGELPARKGQSVILRMYDSLGGLARGTVVTTWPLKKVCKVNLLEDDLEVVPWENGRFTVELRPFEVASYRLVLA
notes: full-length Ams1 of Chaetomium thermophilum; the first methionine is processed (density map); model holds residues 2-1079; also called CtAms1_1; CtAms1_3; source: S. pombe (Pnmt1 promoter), fusion protein purified (GFP-Trap beads, released with 3C protease)
stoichiometry N [4]: 4

B2: CtAms1: Chaetomium thermophilum α-mannosidase Ams1 (CTHT_0067100) (protein)
chain: B1 chain
Kd (CtNbr1-FW): 0.0034 µM
dissociation constant (KD) (CtNbr1-FW-D654A): No binding
dissociation constant (KD) (CtNbr1-FW-W763A): No binding
interaction with CtNbr1 (CtNbr1): interacted
binding to D654E mutant of CtNbr1 FW domain (CtNbr1-FW-D654E): bound
localization of CtAms1 expressed alone (S. pombe cells; no CtNbr1, nutrient-rich and nitrogen starvation (3 h), wild-type S. pombe, CtAms1-mCherry): diffuse cytoplasmic distribution
CtNbr1-dependent vacuolar entry (S. pombe cells; untagged CtNbr1 co-expressed, 3 h nitrogen starvation, atg5Δ S. pombe): abolished
vacuolar entry on co-expression of CtNbr1 (S. pombe cells; untagged CtNbr1 co-expressed, 3 h nitrogen starvation, wild-type S. pombe): vacuolar entry
cell periphery accumulation on co-expression of CtNbr1 (S. pombe cells; untagged CtNbr1 co-expressed, nutrient-rich conditions (0 h), wild-type S. pombe): cell periphery accumulation
